Reference: doi:10.1101/869925 (bioRxiv, 2019)

B1: endogenous human drebrin-like protein (DBNL) (natural protein)
chain: not shown
B2: his-EmGFP-DBNL(1-256) (domain or fragment)
chain: not shown
B3: his-EmGFP-DBNL(1-374) (domain or fragment)
chain: not shown

Assays:
native gel or EMSA = target: the molecule itself; test: native gel or EMSA
[1] = target: the molecule itself; test: fluorescence correlation spectroscopy

Protein | stoichiometry N (native gel or EMSA) | binding result [1]
B1 | 2 | –
B2 | – | binds
B3 | – | binds
